Series [1] deals with T1, sN-TALER IV-1 (GinH106Y-TALE13) (synthetic).
T1 chain: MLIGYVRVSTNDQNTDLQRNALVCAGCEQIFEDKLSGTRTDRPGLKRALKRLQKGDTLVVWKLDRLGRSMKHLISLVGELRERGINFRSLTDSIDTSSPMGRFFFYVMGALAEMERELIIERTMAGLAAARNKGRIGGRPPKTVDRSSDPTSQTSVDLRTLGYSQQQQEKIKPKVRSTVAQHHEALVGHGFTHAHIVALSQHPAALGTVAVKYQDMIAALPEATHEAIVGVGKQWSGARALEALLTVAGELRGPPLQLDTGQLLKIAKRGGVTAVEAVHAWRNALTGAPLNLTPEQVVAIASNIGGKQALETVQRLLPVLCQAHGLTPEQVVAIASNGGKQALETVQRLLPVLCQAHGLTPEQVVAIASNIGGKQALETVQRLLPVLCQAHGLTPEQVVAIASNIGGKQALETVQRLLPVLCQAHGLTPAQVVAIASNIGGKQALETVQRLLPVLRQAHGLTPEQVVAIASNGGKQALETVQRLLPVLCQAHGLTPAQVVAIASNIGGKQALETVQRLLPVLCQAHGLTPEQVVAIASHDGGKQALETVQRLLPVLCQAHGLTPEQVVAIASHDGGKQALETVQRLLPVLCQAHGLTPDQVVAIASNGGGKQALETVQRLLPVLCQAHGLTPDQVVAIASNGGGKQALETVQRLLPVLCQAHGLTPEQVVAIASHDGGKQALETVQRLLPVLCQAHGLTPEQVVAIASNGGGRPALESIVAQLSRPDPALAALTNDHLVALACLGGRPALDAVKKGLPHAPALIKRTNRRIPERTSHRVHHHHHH
As to the kind of experiment: cell_activity; E. coli. Particulars: tags: 6-His; chain copies: 2 per site, tetramer in synapsis (stated). Here is the method:
(§1) To test for recombination, E. coli DH5alpha cells were co-transformed with different combinations of TALER expression construct and TALER reporter construct pairs (Tables 6 and 7). The N-TALER expression and reporter constructs were in an approximate 1:1 mass ratio during the transformation. The co-transformed bacteria were plated on media with chloramphenicol, kanamycin, and X-gal then incubated at 37° C. for 18 to 36 hours. Control samples consisted of transformations using the reporter construct alone. Control transformants were similarly plated. The bacterial transformation protocol was either heat shock or electroporation per standard molecular biology techniques.

Series [2] deals with T2, pN-TALER IV-1-EE2 (GinL7C7-EE2-TALE13) (synthetic).
T2 chain: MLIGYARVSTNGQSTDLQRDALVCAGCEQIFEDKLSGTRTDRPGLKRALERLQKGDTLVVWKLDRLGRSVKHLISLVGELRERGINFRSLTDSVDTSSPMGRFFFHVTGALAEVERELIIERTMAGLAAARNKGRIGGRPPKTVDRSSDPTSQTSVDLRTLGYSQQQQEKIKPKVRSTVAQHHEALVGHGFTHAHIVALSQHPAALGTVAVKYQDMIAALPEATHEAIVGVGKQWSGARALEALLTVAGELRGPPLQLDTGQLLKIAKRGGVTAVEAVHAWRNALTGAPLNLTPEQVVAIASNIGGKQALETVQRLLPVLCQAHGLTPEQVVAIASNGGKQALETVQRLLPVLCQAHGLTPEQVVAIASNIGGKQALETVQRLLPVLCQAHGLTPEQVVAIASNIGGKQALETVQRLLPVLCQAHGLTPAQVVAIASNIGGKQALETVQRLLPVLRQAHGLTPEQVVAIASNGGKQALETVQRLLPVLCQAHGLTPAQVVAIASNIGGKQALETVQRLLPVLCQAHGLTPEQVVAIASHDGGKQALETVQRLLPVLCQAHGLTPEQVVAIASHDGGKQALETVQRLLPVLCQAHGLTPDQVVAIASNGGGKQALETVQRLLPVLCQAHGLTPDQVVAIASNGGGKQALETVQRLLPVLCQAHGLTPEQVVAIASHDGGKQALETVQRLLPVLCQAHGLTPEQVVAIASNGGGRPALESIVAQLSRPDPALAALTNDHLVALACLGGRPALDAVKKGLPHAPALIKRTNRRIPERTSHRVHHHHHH
The experiment in a line: cell_activity; E. coli. As to conditions: tags: 6-His. Here is the method:
as §1
Two additional N-TALERs, based on N-TALER IV-1, were constructed wherein the GinH106Y recombinase catalytic domain was replaced with either the GinL7C7-EE2 catalytic domain or the GinL7C7-EE3 permissive recombinase catalytic domain. These N-TALERs were labeled pN-TALER IV-1-EE2 (SEQ ID NO:41) and pN-TALER IV-1-EE3 (SEQ ID NO:45), respectively. pN-TALER IV-1-EE2 was tested in combination with seventeen N-TALER reporter constructs and pN-TALER IV-1-EE3 was tested with three reporter constructs (Table 10).

Series [3] deals with T3, sN-TALER IV-2 (GinH106Y-TALE13) (synthetic).
T3 chain: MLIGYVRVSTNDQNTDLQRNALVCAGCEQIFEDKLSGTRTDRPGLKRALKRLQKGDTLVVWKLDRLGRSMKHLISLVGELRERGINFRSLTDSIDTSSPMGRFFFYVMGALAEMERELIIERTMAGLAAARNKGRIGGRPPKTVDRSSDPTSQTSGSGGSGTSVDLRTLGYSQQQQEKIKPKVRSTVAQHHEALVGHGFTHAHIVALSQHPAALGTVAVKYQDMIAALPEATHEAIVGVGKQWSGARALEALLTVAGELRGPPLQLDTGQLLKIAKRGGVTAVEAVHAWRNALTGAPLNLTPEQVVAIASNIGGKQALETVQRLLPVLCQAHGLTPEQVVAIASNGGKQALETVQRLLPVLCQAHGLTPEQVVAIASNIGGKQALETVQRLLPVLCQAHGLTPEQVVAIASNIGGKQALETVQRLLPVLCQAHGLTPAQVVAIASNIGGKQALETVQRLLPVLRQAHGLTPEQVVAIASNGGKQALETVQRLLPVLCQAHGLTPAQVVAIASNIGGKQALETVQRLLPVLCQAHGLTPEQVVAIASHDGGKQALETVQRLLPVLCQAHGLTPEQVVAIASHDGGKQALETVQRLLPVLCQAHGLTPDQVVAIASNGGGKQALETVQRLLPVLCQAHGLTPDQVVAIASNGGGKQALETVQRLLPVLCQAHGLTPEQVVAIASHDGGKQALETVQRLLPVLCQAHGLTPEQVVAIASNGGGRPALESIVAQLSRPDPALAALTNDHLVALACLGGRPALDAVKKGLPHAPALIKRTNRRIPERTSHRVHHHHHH
As to the kind of experiment: cell_activity; E. coli. Particulars: tags: 6-His. Here is the method: as §1

Series [4] deals with T1, sN-TALER IV-1 (GinH106Y-TALE13). As to the kind of experiment: cell_activity; E. coli; sequenced. As to conditions: tags: 6-His; chain copies: 2 per site, tetramer in synapsis (stated). Here is the method: as §1
PCR was used to confirm that the predicted recombination had occurred in colonies which were white or sectored. PCR primers were designed so that a PCR product of approximately 877 bp (depending on the length of the spacers) would be produced from the non-recombined reporter constructs, and a PCR product of approximately 470 bp would be produced from reporter constructs that had undergone N-TALER-mediated recombination. Standard colony PCR was performed on white, blue, and sectored colonies from several plates representing different pairs of N-TALER expression construct and reporter construct co-transformation combinations.
To confirm that the recombination occurred as predicted, several of the PCR products were sequenced. Sequencing results for PCR products generated from white colonies from the sN-TALER IV-1 and Gin18TALE+1; sN-TALER IV-1 and Gin20TALE+0; or sN-TALER IV-1 and Gin20TALE+10 reporter constructs are shown in FIG. 7. No mismatches were detected relative to the predicted recombinase core sequence in any of the PCR products sequenced thereby confirming a base-perfect recombination with N-TALERs (the few single-nucleotide mismatches detected in the sN-TALER IV-1 and Gin20TALE+0 combination were rechecked and consequently dismissed as sequencing error).

Series [5] addresses T2, pN-TALER IV-1-EE2 (GinL7C7-EE2-TALE13). The experiment in a line: cell_activity; E. coli. Particulars: tags: 6-His. From the text: To determine how much of the Gin20 sequence is required for recombination when the central sequence is maintained at a permitted length, N-TALER reporters were generated with a 20 bp recombinase central sequence between the TALE binding sites, where either the central 12 bp, or the central 10 bp, or the central 8 bp of the recombinase core sequence were held constant, and the remaining nucleotides were different from the Gin sequence. The N-TALER reporter with 12 bp was designated R45, the N-TALER reporter with 10 bp was designated R46, and the N-TALER reporter with 8 bp was designated R47. A N-TALER reporter with a 10 bp site 1 and a 12 bp site 2 was designated R46B, and a N-TALER reporter with a T and an A flanking the central AT di-nucleotide was designated R48 (see Table 33). The various reporters, including the pSC101 Gin20TALE13+0 were co-transformed with either sN-TALER-IV-1 or pN-TALER-IV-1 and recombination, as determined by colony color, was scored (Table 33). For purposes of comparison, the GinE site that was used in the generation of the GinL7C7-EE2 recombinase domain (Gersbach et al., 2010) was also included.
To confirm that white colonies resulted from recombination, the colonies were analyzed by colony PCR and sequencing of the PCR product. For the reporter that retained 12 bp from the Gin site, 8 of 8 colonies analyzed had the predicted recombination product for both the sN-TALER-IV-1 chimera and the pN-TALER-IV-1chimera (16 colonies total analyzed, 8 each). Likewise, for the reporter that retained 8 bp from the Gin site co-transformed with the pN-TALER-IV-1 chimera, 14 of 14 colonies analyzed had the predicted recombination product.

B1: Gin20TALE+2 (dsDNA)
DNA 1: AGAAGGTATTTATATATCCAAAACCATGGTTTACAGTATATAAATACCTTCT
DNA 2: AGAAGGTATTTATATACTGTAAACCATGGTTTTGGATATATAAATACCTTCT
As to B1, the activity in series [1] worked out at 3 score; in series [2], 1 score.

B2: Gin20TALE+7 (dsDNA)
DNA 1: AGAAGGTATTTATATAGGTTATCCAAAACCATGGTTTACAGGACGGTATATAAATACCTTCT
DNA 2: AGAAGGTATTTATATACCGTCCTGTAAACCATGGTTTTGGATAACCTATATAAATACCTTCT
Regarding B2, the activity in series [2] was 2.5 score.

B3: Gin20TALE+1 (dsDNA)
DNA 1: AGAAGGTATTTATATTCCAAAACCATGGTTTACAGATATAAATACCTTCT
DNA 2: AGAAGGTATTTATATCTGTAAACCATGGTTTTGGAATATAAATACCTTCT
With B3, the results for the activity in series [3], in series [1] and in series [2] were 1 score, 2 score and 1 score, respectively.

B4: Gin20TALE+10 (dsDNA)
DNA 1: AGAAGGTATTTATATAGGCACTTATCCAAAACCATGGTTTACAGGACCACGGTATATAAATACCTTCT
DNA 2: AGAAGGTATTTATATACCGTGGTCCTGTAAACCATGGTTTTGGATAAGTGCCTATATAAATACCTTCT
Regarding B4, the activity worked out at 1 score in series [3], 1.5 score in series [4] and 1 score in series [2].

B5: Gin20TALE+4 (dsDNA)
DNA 1: AGAAGGTATTTATATATATCCAAAACCATGGTTTACAGGCTATATAAATACCTTCT
DNA 2: AGAAGGTATTTATATAGCCTGTAAACCATGGTTTTGGATATATATAAATACCTTCT
Consider B5, for which the activity in series [3] was 4 score; in series [2], 1.5 score.

B6: R47 (8bp) (dsDNA)
DNA 1: AGAAGGTATTTATATCTCTGACCATGGTCACACTTATAAATACCTTCT
DNA 2: AGAAGGTATTTATAAGTGTGACCATGGTCAGAGATATAAATACCTTCT
With B6, the activity in series [5] was determined as 1.5 score.

B7: Gin20TALE+6 (dsDNA)
DNA 1: AGAAGGTATTTATATAGTTATCCAAAACCATGGTTTACAGGACGTATATAAATACCTTCT
DNA 2: AGAAGGTATTTATATACGTCCTGTAAACCATGGTTTTGGATAACTATATAAATACCTTCT
Consider B7, for which the activity in series [2] was 2 score.

B8: Gin20TALE+3 (dsDNA)
DNA 1: AGAAGGTATTTATATAATCCAAAACCATGGTTTACAGGTATATAAATACCTTCT
DNA 2: AGAAGGTATTTATATACCTGTAAACCATGGTTTTGGATTATATAAATACCTTCT
Regarding B8, the activity was found to be 3 score in series [3], 3 score in series [1] and 1 score in series [2].

B9: Gin20TALE+9 (dsDNA)
DNA 1: AGAAGGTATTTATATAGGCATTATCCAAAACCATGGTTTACAGGACACGGTATATAAATACCTTCT
DNA 2: AGAAGGTATTTATATACCGTGTCCTGTAAACCATGGTTTTGGATAATGCCTATATAAATACCTTCT
Take B9: the activity in series [1] and in series [2] was 2 score each time.
